Several values for one entry are separate records, joined by “and”; a condition that tells them apart may be missing. Equal entries are not always repeated.
Assays:
[1] = HPLC verification of prepared potassium mevalonate after frozen storage; settings: HPLC peak area versus lithium mevalonate standard; stored at −20° C.
Experimental: The mixed solution was then incubated at 37° C. for 2 hours. After incubation, pH of the solution was adjusted to 8.0 by neutralization with hydrochloric acid.
HPLC used for the verification was HITACH High-Performance Liquid Chromatography (L-2000). HPLC was performed by using YMC-Pack ODS-A (150×4.6 mm I.D.: YMC CO., LTD.) as stationary phase and phosphoric acid (pH2.5) as mobile phase. Detection was performed at 210 nm.

[2] = molecular target: Nitrosopumilus maritimus mevalonate kinase (nmr), wild type, SEQ ID NO:9, N-terminal His-tag (Nitrosopumilus maritimus, UniProt A9A427); assay: Examination of product inhibition on nmr-derived mevalonate kinase; type: biochemical; settings: 1 mM mevalonate as substrate, 50 mM ATP
[3] = substrate: Nc1ncnc2c1ncn2[C@@H]1O[C@H](COP(=O)(O)OP(=O)(O)OP(=O)(O)O)[C@@H](O)[C@H]1O; assay: purified protein, by the assay type; type: biochemical, Corynebacterium variabile; settings: other: cva, 5 mM potassium mevalonate, pH 7.6, 30° C., Lineweaver-Burk plot
Experimental: (§1) Each obtained plasmid was used for transformation of E. coli BL21(DE3). […] When OD600 reached approximately 0.5, 0.1 mM IPTG (for cva, mma, nmr, and sce) or 1 mM (for mcl and mpd) of IPTG was added, and then the mixture was kept at 20° C. overnight to induce the target protein. Harvested cells were suspended in buffer solution A (50 mM sodium phosphate, 0.3 M NaCl and 20 mM Imidazol), and then the cells were disrupted with an ultrasonic disruptor (TOMY: UD-201). […] After centrifugation (28,000×g, 30 min), the supernatant was adsorbed onto His-Trap HP (GE Healthcare) to elute the target protein by linear concentration gradient of Imidazol (final concentration 0.5 M). Obtained protein was dialyzed by using an external solution composed of 20 mM Tris-HCl (pH 8.0) containing 1 mM DTT and 50 mM NaCl. Dialyzed protein was designated as purified enzyme. Protein quantity was measured with Bio-RAD protein assay kit and BSA standard condition.
(§2) Decrease in absorbance at 340 nm at 30° C. was measured to determine the enzyme activity. […] Km value was calculated by Lineweaver-Burk plot.
(§3) Measured activity of each enzyme (JABS/min) was presented on Table 9 for the calculation of apparent Km value (Km app.) of each enzyme. Table 10 presents Km app., Vmax, molecular weight of the enzyme protein, protein concentration in the enzyme solution and calculated kcat.

[4] = substrate: Nc1ncnc2c1ncn2[C@@H]1O[C@H](COP(=O)(O)OP(=O)(O)OP(=O)(O)O)[C@@H](O)[C@H]1O; assay: purified protein, by the assay type; type: biochemical, Saccharomyces cerevisiae; settings: other: sce, 5 mM potassium mevalonate, pH 7.6, 30° C., Lineweaver-Burk plot
Experimental: as §1, §2, §3

[5] = substrate: Nc1ncnc2c1ncn2[C@@H]1O[C@H](COP(=O)(O)OP(=O)(O)OP(=O)(O)O)[C@@H](O)[C@H]1O; assay: purified protein, by the assay type; type: biochemical, Nitrosopumilus maritimus; settings: other: nmr, 5 mM potassium mevalonate, pH 7.6, 30° C., Lineweaver-Burk plot
Experimental: as §1, §2, §3

[6] = substrate: Nc1ncnc2c1ncn2[C@@H]1O[C@H](COP(=O)(O)OP(=O)(O)OP(=O)(O)O)[C@@H](O)[C@H]1O; assay: purified protein, by the assay type; type: biochemical, Methanosarcina mazei; settings: other: mma, 5 mM potassium mevalonate, pH 7.6, 30° C., Lineweaver-Burk plot
Experimental: as §1, §2, §3

mevalonate kinase [7] = assay: Expression analysis and activity confirmation of His-tagged mevalonate kinases from pET-21a(+) and pET-28b(+); type: biochemical; settings: His-spinTrap eluate after dialysis, 10 μl enzyme solution
Experimental: Each obtained plasmid was used for transformation of E. coli BL21(DE3). […] When OD600 reached approximately 0.5, IPTG was added to the solution to final concentration of 1 mM. It was then cultured overnight at 20° C. Harvested cells were suspended in the buffer solution consisting of 50 mM sodium phosphate, 0.3 M NaCl and 20 mM Imidazol. Then the cells were disrupted with an ultrasonic disruptor (TOMY: UD-201, output level=3.5). After centrifugation (20,000×g, 20 min), disrupted cells were adsorbed to His-spinTrap (GE Healthcare). After washing with the same buffer solution, protein was eluted with the buffer solution consisting of 50 mM sodium phosphate, 0.3 M NaCl and 0.5 M imidazole (pH7.5). Eluate was dialyzed overnight at 4° C. with the external solution composed of 20 mM Tris-HCl (pH7.5) and 50 mM NaCl. Then, enzyme activity of each eluate in the internal dialysis solution was measured.
Activity of the internal dialysate (about 0.2 ml each) was measured with the 10 μl of enzyme solution (Table 8). Enzyme expression level was compared on activity basis between pET-21a(+) and pET-28b(+). […] It is inferred that expression level is higher in pET-28b(+). Therefore, purified enzyme expressed in pET-28b(+) was used in the further examinations.
Values were presented by decrease in absorbance per unit time per 10 μl in the enzyme reaction measurement system (dABS/min/10 μl).
(§4) Decrease in absorbance at 340 nm at 30° C. was measured to determine the enzyme activity. JASCO Corporation's spectrophotometer (V-650) was used in this study. Millimolar extinction coefficient of NADH used in this study was 6.22 mM^−1 cm^−1. […] Km value was calculated by Lineweaver-Burk plot.

mevalonate kinase [8] = assay: Measurement of activity and Km value of purified mevalonate kinase (PK/LDH coupled, 340 nm); type: biochemical
Experimental: as §1, §4, §3
Activity was indicated by dABS/min when 10 μl of each enzyme was added to 1 ml of reaction solution.

mevalonate kinase [9] = assay: Inhibition of each mevalonate kinase by DMAPP, GPP, FPP or DPM; type: biochemical
Experimental: Since GPP and FPP solutions contain methanol, methanol which was needed to keep the same methanol level at the addition to the reaction system was added to the reaction solution, which was designated as control.
Respective effect of the added 5 mM DMAPP, 0.1 mM GPP, and 0.1 mM FPP on the activity of each enzyme was measured. […] Contrarily, mcl-derived enzyme was activated by 5 mM DMAPP and its activity increased by 20% from that of the control.
Activity when 10 μl of each enzyme was added to 1 ml of the reaction system was represented by dABS/min
Effect of 1 mM diphosphomevalonate (DPM) on each enzyme was also studied.

mevalonate kinase [10] = assay: Examination of product inhibition on each mevalonate kinase (absorbance at 386 nm, PMK addition); type: biochemical; settings: 1 mM mevalonate as substrate; in words
Experimental: When decrease in absorbance stopped, purified PMK was added to measure further decrease in absorbance at 386 nm.
FIG. 18 presents the SDS-PAGE profile of the purified PMK. […] Then, absorbance decreased further and finally absorbance at 386 nm decreased to 0.3 in all reaction systems. Therefore, it is inferred that mevalonate is converted into diphosphomevalonate via phosphomevalonate by adding PMK to each MVK.

[11] = test system: mcl-derived mevalonate kinase; assay: Effect of IPP and low-concentration DMAPP on mcl-derived mevalonate kinase activity

Molecule: C[C@@](O)(CCO)CC(=O)[O-].[K+] [potassium mevalonate]
- stability after frozen storage [1]: stable

Molecule: C[C@@](O)(CCOP(=O)(O)O)CC(=O)O [phosphomevalonate, mevalonate-5-phosphate]
- Product inhibition [2]: may cause product inhibition

B1: Corynebacterium variabile mevalonate kinase (cva), wild type, SEQ ID NO:3, N-terminal His-tag (Corynebacterium variabile) (protein)
chain: MAPHVGHGQTVAKIILFGEHSVVYGHPAIAMPLRTLRMIARVEPTDGPGTLSGLGWTGPITEAPARFSSIVKAAEVASDFAGHPGAGLNISTESEFPPERGLGSSAAAAGAVIRAVLDAFDTPATPRELFDLTQEAETVAHGRPSGLDAVATSAEAPVHFQAGQATDLEFSPDAWIVIADSGVEGSTRETVGHVRGRFEAEPDIITALLNRLGEITDEVVVDLRTGDVQGMGARMTEAHGILGQLGVSNTQLDALVTASLGAGALGAKLTGGGRGGCVIALAATEEDAENVEKALVDAGARGTWVHAPATGQMAGEVMQ
- Km [3]: 1347 ± 29^ μM

B2: Saccharomyces cerevisiae mevalonate kinase (sce, ERG12), wild type, NP_013935.1, N-terminal His-tag (Saccharomyces cerevisiae S288C) (protein)
chain: MSLPFLTSAPGKVIIFGEHSAVYNKPAVAASVSALRTYLLISESSAPDTIELDFPDISFNHKWSINDFNAITEDQVNSQKLAKAQQATDGLSQELVSLLDPLLAQLSESFHYHAAFCFLYMFVCLCPHAKNIKFSLKSTLPIGAGLGSSASISVSLALAMAYLGGLIGSNDLEKLSENDKHIVNQWAFIGEKCIHGTPSGIDNAVATYGNALLFEKDSHNGTINTNNFKFLDDFPAIPMILTYTRIPRSTKDLVARVRVLVTEKFPEVMKPILDAMGECALQGLEIMTKLSKCKGTDDEAVETNNELYEQLLELIRINHGLLVSIGVSHPGLELIKNLSDDLRIGSTKLTGAGGGGCSLTLLRRDITQEQIDSFKKKLQDDFSYETFETDLGGTGCCLLSAKNLNKDLKIKSLVFQLFENKTTTKQQIDDLLLPGNTNLPWTS
notes: His-tag (N); made in house; host or cells: E. coli BL21(DE3)
- Km [4]: 464 ± 7.6 µM

B3: Nitrosopumilus maritimus mevalonate kinase (nmr), wild type, SEQ ID NO:9, N-terminal His-tag (Nitrosopumilus maritimus SCM1) (protein)
chain: MKSKASAPGKVILFGEHFVVYGVKAILCAINKRIAVTAEKIDERKISIKSNIGHLELEPNKPISEINSPLKPFYYLANKIIQDKNFGIKIDVESEIPLGVGLGSSSACCVAGAAAISNLFENNSKEEILKLAIEAEKTIFQNTSGADCTVCTFGGLMEYDKENGFSKIESEPNFHLVIANSNVEHSTESVVAGVRKFKKNNEAEFSKLCKDESHLIENVLELLKENNIRELGERVIKNQEYLERIGISNAKLREMIQTGQNSSFGAKITGAGGGGCIFALTDESNLENTIKEFKEKNHECFSVKIDFKGLDTF
- Km [5]: 1006 ± 20^ μM

B4: Methanosarcina mazei mevalonate kinase (mma), wild type, SEQ ID NO:12, N-terminal His-tag (Methanosarcina mazei Go1) (protein)
chain: MVSCSAPGKIYLFGEHAVVYGETAIACAVELRTRVRAELNDSITIQSQIGRTGLDFEKHPYVSAVIEKMRKSIPINGVFLTVDSDIPVGSGLGSSAAVTIASIGALNELFGFGLSLQEIAKLGHEIEIKVQGAASPTDTYVSTFGGVVTIPERRKLKTPDCGIVIGDTGVFSSTKELVANVRQLRESYPDLIEPLMTSIGKISRIGEQLVLSGDYASIGRLMNVNQGLLDALGVNILELSQLIYSARAAGAFGAKITGAGGGGCMVALTAPEKCNQVAEAVAGAGGKVTITKPTEQGLKVD
- Km [6]: 687 ± 9.3 µM

B5: mcl: mevalonate kinase derived from Methanosaeta concilii (SEQ ID NO:6), His-tagged purified enzyme (protein, listed as Methanosaeta concilii)
chain: MTMASAPGKIILFGEHAVVSGTAALGGAIDLRARAIVQSLPGRILIETDDLSLRGFSLDLSTGEIRSASAAYATRYVSAVLKELGARDVRVMIESDIPPAAGLGSSASIVVATVAALNGHLGLELSQKEIAALSYRIEKEVQKGRGSPMDTALATYGGYQRIADDNQRLDLPPLEMVVGYTRLPHDTFSLVEKVQLLKERYPDLVGPIFQAIGAISERAAPLIREQRLKDLGELMDINHGLLEALGVGSRELSELVYAARNTGGALGAKLTGAGGGGCMIALPGMAGKDALLVALRQARGMAFAAMMGCEGVRLEVA
modifications: His-tag
- enzyme activity, pET21 system (C terminal Tag) (mevalonate kinase [7]): 0.003 dABS/min/10 μl
- enzyme activity, pET28 system (N terminal Tag) (mevalonate kinase [7]): 0.023 dABS/min/10 μl
- dABS/min at ATP 0.04 mM (mevalonate kinase [8]; ATP 0.04 mM, potassium mevalonate 5 mM, 10 μl enzyme in 1 ml, replicate values): 0.06058 dABS/min and 0.06029 dABS/min and 0.05985 dABS/min
- dABS/min at ATP 0.2 mM (mevalonate kinase [8]; ATP 0.2 mM, potassium mevalonate 5 mM, 10 μl enzyme in 1 ml, replicate values): 0.1223 dABS/min and 0.1222 dABS/min (2×)
- dABS/min at ATP 1 mM (mevalonate kinase [8]; ATP 1 mM, potassium mevalonate 5 mM, 10 μl enzyme in 1 ml, replicate values): 0.1584 dABS/min (2×) and 0.1585 dABS/min
- affinity to mevalonate and ATP compared with the other enzymes (mevalonate kinase [8]; in words): higher affinity to mevalonate and ATP than the other enzymes
- dABS/min at mev 0.002 mM (mevalonate kinase [8]; potassium mevalonate 0.002 mM, ATP 5 mM, 10 μl enzyme in 1 ml, replicate values): 0.02277 dABS/min and 0.02381 dABS/min and 0.02265 dABS/min
- dABS/min at mev 0.01 mM (mevalonate kinase [8]; potassium mevalonate 0.01 mM, ATP 5 mM, 10 μl enzyme in 1 ml, replicate values): 0.08427 dABS/min and 0.0843 dABS/min and 0.08431 dABS/min
- dABS/min at mev 0.04 mM (mevalonate kinase [8]; potassium mevalonate 0.04 mM, ATP 5 mM, 10 μl enzyme in 1 ml, replicate values): 0.1675 dABS/min and 0.1677 dABS/min and 0.1671 dABS/min
- dABS/min at mev 0.2 mM (mevalonate kinase [8]; potassium mevalonate 0.2 mM, ATP 5 mM, 10 μl enzyme in 1 ml, replicate values): 0.2123 dABS/min (2×) and 0.2125 dABS/min
- enzyme activity, Control (mevalonate kinase [9]; Table 11 control without terpenyl diphosphate (methanol added)): 0.1482 dABS/min
- enzyme activity, Control (mevalonate kinase [9]; Table 12 control without DPM): 0.1373 dABS/min
- effect of 5 mM DMAPP on enzyme activity (mevalonate kinase [9]; in words): activated
- course of decrease in absorbance at 386 nm until PMK addition (mevalonate kinase [10]): almost linear decrease in absorbance
- enzyme activity, Control (MeOH) ([11]; 70% methanol control for IPP): 0.1594 dABS/min
- enzyme activity, Control (H2O) ([11]; control for DMAPP): 0.154 dABS/min

From patent US10184137B2, “Method of producing isoprene monomer” (AJINOMOTO CO., INC., priority 2014, dated 2019)
